Assay results taken from PMC1888729, “Control of Pre-mRNA Splicing by the General Splicing Factors PUF60 and U2AF^65” (PLoS ONE, 2007).

B1: PUF60 (endogenous, heparin fraction of HeLa nuclear extract) (natural protein, human (endogenous in HeLa), UniProt Q9UHX1 1-559, looked up)
chain: MATATIALQVNGQQGGGSEPAAAAAVVAAGDKWKPPQGTDSIKMENGQSTAAKLGLPPLTPEQQEALQKAKKYAMEQSIKSVLVKQTIAHQQQQLTNLQMAAVTMGFGDPLSPLQSMAAQRQRALAIMCRVYVGSIYYELGEDTIRQAFAPFGPIKSIDMSWDSVTMKHKGFAFVEYEVPEAAQLALEQMNSVMLGGRNIKVGRPSNIGQAQPIIDQLAEEARAFNRIYVASVHQDLSDDDIKSVFEAFGKIKSCTLARDPTTGKHKGYGFIEYEKAQSSQDAVSSMNLFDLGGQYLRVGKAVTPPMPLLTPATPGGLPPAAAVAAAAATAKITAQEAVAGAAVLGTLGTPGLVSPALTLAQPLGTLPQAVMAAQAPGVITGVTPARPPIPVTIPSVGVVNPILASPPTLGLLEPKKEKEEEELFPESERPEMLSEQEHMSISGSSARHMVMQKLLRKQESTVMVLRNMVDPKDIDDDLEGEVTEECGKFGAVNRVIIYQEKQGEEEDAEIIVKIFVEFSIASETHKAIQALNGRWFAGRKVVAEVYDQERFDNSDLSA
notes: PUF60 of HeLa nuclear extract; Seen as a monomer and as an SDS-resistant dimer; also called FIR; RoBP1; source: endogenous, HeLa nuclear extract, fractionated (20-40% ammonium sulfate, CsCl gradient, Poros heparin column)
B2: His-tagged PUF60 (PUF60S, HEK-293E) (natural protein, human, UniProt Q9UHX1-2 1-542, looked up)
chain: MATATIALQVNGQQGGGSEPAAAAAVVAAGDKWKPPQGTDSIKMENGQSTAAKLGLPPLTPEQQEALQKAKKYAMEQSIKSVLVKQTIAHQQQQLTNLQMAAQRQRALAIMCRVYVGSIYYELGEDTIRQAFAPFGPIKSIDMSWDSVTMKHKGFAFVEYEVPEAAQLALEQMNSVMLGGRNIKVGRPSNIGQAQPIIDQLAEEARAFNRIYVASVHQDLSDDDIKSVFEAFGKIKSCTLARDPTTGKHKGYGFIEYEKAQSSQDAVSSMNLFDLGGQYLRVGKAVTPPMPLLTPATPGGLPPAAAVAAAAATAKITAQEAVAGAAVLGTLGTPGLVSPALTLAQPLGTLPQAVMAAQAPGVITGVTPARPPIPVTIPSVGVVNPILASPPTLGLLEPKKEKEEEELFPESERPEMLSEQEHMSISGSSARHMVMQKLLRKQESTVMVLRNMVDPKDIDDDLEGEVTEECGKFGAVNRVIIYQEKQGEEEDAEIIVKIFVEFSIASETHKAIQALNGRWFAGRKVVAEVYDQERFDNSDLSA
notes: PUF60S, the isoform of human PUF60 that lacks alternative exon 5; amplified from pGAD-GH-RoBPI-47,3 with the primers PUF60Hisstart and PUFresmutD; About 60% of the protein ran as an SDS-resistant dimer; also called recombinant PUF60; PUFS; source: HEK-293E, transiently transfected with pTT3-HisPUFS, purified (Ni-NTA agarose)

Key:
[1] = molecular target: the molecule itself; test: SDS-PAGE and western blot; heparin fraction of HeLa nuclear extract, blot probed for PUF60
[2] = molecular target: the molecule itself; test: SDS-PAGE and western blot; His-tagged PUF60 (~3.6 pmol) purified from HEK-293E cells, blot probed for PUF60

| Protein | stoichiometry N [1] | stoichiometry N [2] |
| --- | --- | --- |
| B1 | 2 |  |
| B2 |  | 2 |
